By EC50 is commonly meant the concentration giving half of the maximal effect. The low end stands for a more potent agent, the high end for a less potent agent.

The source of these data is US20230279153A1 (Regeneron, published 2023).

Test [1] deals with T1, mouse PD1 (mouse, UniProt Q02242 25-288).
T1 sequence (looked up): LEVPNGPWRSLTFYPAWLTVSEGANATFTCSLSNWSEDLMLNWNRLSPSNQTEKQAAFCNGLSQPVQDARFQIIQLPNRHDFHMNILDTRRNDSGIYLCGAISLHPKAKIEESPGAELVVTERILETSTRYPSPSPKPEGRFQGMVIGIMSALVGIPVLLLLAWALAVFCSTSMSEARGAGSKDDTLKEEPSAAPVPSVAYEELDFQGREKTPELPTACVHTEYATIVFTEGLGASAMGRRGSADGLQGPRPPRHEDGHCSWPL
In words: cell-based or functional assay.

Test [2] deals with T2, mouse CD20 (mouse, UniProt P19437 1-291).
T2 construct: whole, on cells; also called mCD20; murine CD20
T2 sequence (looked up): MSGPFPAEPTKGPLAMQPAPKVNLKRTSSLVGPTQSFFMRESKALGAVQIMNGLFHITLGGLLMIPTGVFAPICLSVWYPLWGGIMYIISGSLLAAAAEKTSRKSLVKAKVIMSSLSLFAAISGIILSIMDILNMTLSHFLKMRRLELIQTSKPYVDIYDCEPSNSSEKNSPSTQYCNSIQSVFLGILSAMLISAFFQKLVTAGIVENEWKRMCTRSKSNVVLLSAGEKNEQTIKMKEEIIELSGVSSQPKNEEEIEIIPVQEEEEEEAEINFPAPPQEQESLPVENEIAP
In words: flow cytometry on MC38/mCD20 cells. As for the experimental part: (§1) Cells (HEK 293, MC38 over-expressing mCD20 or Jurkat over-expressing mPD1) were resuspended in FACS wash (PBS with 1% FBS) at 1×10⁶ cells/mL. The staining was performed in 1×10⁵ cells per well. The antibodies were diluted with a ratio of 1:5 from a starting concentration of 1.3×10⁻⁰⁷ M. The diluted antibodies were then added into the wells containing cells. Cells were stained for 30 min at 2-8° C. and washed twice with FACS wash buffer. APC-conjugated goat anti-human IgG (Jackson Immuno Research, 109-607-003, 1:400) was added to stain the cells for 30 min at 2-8° C. Following washing, cells were fixed in 2% paraformaldehyde for 30 min at 2-8° C. After two washes, stained cells were analyzed using BD LSRFortessa™ FACS instrument. The results were analyzed by FlowJo. FSC/SSC gates were used to select mononuclear cells.
For orientation: Flow cytometry measures light scatter and fluorescence of single cells or particles in a stream.

Test [3] concerns the target T1, mouse PD1. Nature of the test: flow cytometry on Jurkat/mPD1 cells. As for the experimental part: as §1
Test [4] concerns the target T2, mouse CD20. In words: flow cytometry on HEK293/mCD20 cells. The method, then: as §1

As to REGN1932 (hIgG1 control) (antibody), the Max % inhibition, luciferase bioassay, 2.5 nM CD3 bsAb with mouse PD1 [1] worked out at 3%. In addition, the Max MFI amounted to 140 MFI in the test with mouse CD20 [2], 90.4 MFI with mouse PD1 [3] and 14.3 MFI with mouse CD20 [4].

In turn, “Single arm mPDL1 WT-Fc (from UniProt Q9EP73 19-239) (Fc fusion)” showed a Max MFI in the test with mouse CD20 [2] of 94.9 MFI.

B1: 1B12IgG1EN (antibody)
heavy 1: QVQLQQPGAELVRPGTSVKLSCKASGYTFTSYWMHWIKQRPGQGLEWIGVIDPSDNYTKYNQKFKGKATLTVDTSSSTAYMQLSSLTSEDSAVYFCAREGYYGSSPWFAYWGQGTLVTVSSASTKGPSVFPLAPSSKSTSGGTAALGCLVKDYFPEPVTVSWNSGALTSGVHTFPAVLQSSGLYSLSSVVTVPSSSLGTQTYICNVNHKPSNTKVDKKVEPKSCDKTHTCPPCPAPEAEGAPSVFLFPPKPKDTLMISRTPEVTCVVVDVSHEDPEVKFNWYVDGVEVHNAKTKPREEQYNSTYRVVSVLTVLHQDWLNGKEYKCKVSNKALPSSIEKTISKAKGQPREPQVYTLPPCRDELTKNQVSLWCLVKGFYPSDIAVEWESNGQPENNYKTTPPVLDSDGSFFLYSKLTVDKSRWQQGNVFSCSVMHEALHNHYTQKSLSLSPGK
heavy 2: QVQLQQPGAELVRPGTSVKLSCKASGYTFTSYWMHWIKQRPGQGLEWIGVIDPSDNYTKYNQKFKGKATLTVDTSSSTAYMQLSSLTSEDSAVYFCAREGYYGSSPWFAYWGQGTLVTVSSASTKGPSVFPLAPSSKSTSGGTAALGCLVKDYFPEPVTVSWNSGALTSGVHTFPAVLQSSGLYSLSSVVTVPSSSLGTQTYICNVNHKPSNTKVDKKVEPKSCDKTHTCPPCPAPEAEGAPSVFLFPPKPKDTLMISRTPEVTCVVVDVSHEDPEVKFNWYVDGVEVHNAKTKPREEQYNSTYRVVSVLTVLHQDWLNGKEYKCKVSNKALPSSIEKTISKAKGQPREPQVCTLPPSRDELTKNQVSLSCAVKGFYPSDIAVEWESNGQPENNYKTTPPVLDSDGSFFLVSKLTVDKSRWQQGNVFSCSVMHEALHNRFTQKSLSLSPGK
light: QIVMSQSPAILSASPGEKVTMTCRARSSVSYIHWYQQKPGSSPKPWIYATSNLASGVPGRFSGSGSGTSYSLTITRVEAEDAATYYCQQWSSKPPTFGGGTKLEIKRTVAAPSVFIFPPSDEQLKSGTASVVCLLNNFYPREAKVQWKVDNALQSGNSQESVTEQDSKDSTYSLSSTLTLSKADYEKHKVYACEVTHQGLSSPVTKSFNRGEC
notes: Control, bivalent anti-mCD20 IgG with knob and hole-star heavy chains; also called 1B12lgG1EN
Turning to B1, in the test with mouse PD1 [1], the “Max % inhibition, luciferase bioassay, 1nM CD3 bsAb” value was 19% and the “Max % inhibition, luciferase bioassay, 2.5 nM CD3 bsAb” value came to 0%. In the test with mouse CD20 [2], a half-maximal effect (EC50) was put at 1.71 nM and the “Max MFI” value worked out at 42000 MFI. Also, in the test with mouse PD1 [3], the “Max MFI” value was 118 MFI and the binding result is “no binding (tested: starting concentration of 1.3×10^-07 M)”. In the test with mouse CD20 [4], the EC50 was 13.5 nM and the “Max MFI” value was found to be 28200 MFI.

B2: 18B12-scFvFc (scFv, V domains shown)
VH: QVQLQQPGAELVRPGTSVKLSCKASGYTFTSYWMHWIKQRPGQGLEWIGVIDPSDNYTKYNQKFKGKATLTVDTSSSTAYMQLSSLTSEDSAVYFCAREGYYGSSPWFAYWGQGTLVTVSS
VL: QIVMSQSPAILSASPGEKVTMTCRARSSVSYIHWYQQKPGSSPKPWIYATSNLASGVPGRFSGSGSGTSYSLTITRVEAEDAATYYCQQWSSKPPTFGGGTKLEIK
For the molecule B2, in the test with mouse CD20 [2], the EC50 was 18 nM and the “Max MFI” value stood at 48300 MFI. Besides, in the test with mouse PD1 [3], the “Max MFI” value stood at 198 MFI and the binding result is recorded as “no binding (tested: starting concentration of 1.3×10^-07 M)”.
